Experimental data reported in patent publication US20220162304A1.

Experiments:
[1] = biological target: human CD79B antigen (coating antigen of the ELISA, construct not stated) (human) (UniProt P40259); assay: ELISA, plate coated with antigen at 1 ug/mL, serial antibody dilutions, OD450
[2] = biological target: fusion protein of human CD79B extracellular domain (ECD) and His tag (human CD79B ECD-His) (human) (UniProt P40259); assay: SPR (Biacore 8K; by Example 2 human CD79B-His immobilised on CM5 chip, antibody flowed over)
fusion protein of human CD79B extracellular domain (ECD) and His tag (human CD79B ECD-His) (human), sequence (P40259 29-159 limits assumed): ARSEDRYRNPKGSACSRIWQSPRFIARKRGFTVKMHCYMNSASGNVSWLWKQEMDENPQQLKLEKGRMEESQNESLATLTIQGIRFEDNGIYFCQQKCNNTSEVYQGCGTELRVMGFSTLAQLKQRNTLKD

human CD79B antigen (coating antigen of the ELISA, construct not stated) (human), sequence (P40259 29-159 limits assumed): as above

EC50 (read off the curve) [1]: 0.1 nM | Kd [2]: 5.98 nM
Substance: SN8 (antibody)
